Experimental data as given in patent CN111434681A.
Values joined by “and” are separate entries in the source; they are usually repeats but may differ in a detail not shown here. Equal entries are not always repeated.

What was measured:
[1] = target: H7N9病毒的HA蛋白(购自ACROBiosystems) (H7N9 influenza virus)
[2] = target: H7N9病毒 A/Anhui/1/2013 (血凝素HA on virus) (influenza A virus A/Anhui/1/2013 (H7N9)); assay: cell-based or functional assay
[3] = target: H7N9病毒的HA蛋白(购自ACROBiosystems) (H7N9 influenza virus); remark: listed apart in the source

B1: 抗H7N9全人源单克隆抗体6J15 (antibody, V domains shown)
VH: QVQLVESGAEVKKPGASVKVSCKASGYNIFTSYDINWVRQATGQGLEWMGWMNPDSGDTGFAQKFQGRVTMTRNTSITTAYMELSSLTSEDTAVYYCATGNADCSGSCYNWFDPWGQGTLVTVSS
VL: SSELTQDPAVSVALGQTVRITCQGDRLRSTYYASWYQQKPGQAPVLVIYGKNNRPSGIPDRFSGSSSGNTASLTITGAQAEDEADYYCNSRDTSGYHLVFGGGTKLTVLV
With B1 the Kd [1] was 2.06 nM, the 微量中和-ELISA实验 (MDCK cells, 100TCID50 virus), IC50 [2] was 0.35 µg/mL and the 450nm (OD) [3] was 2.25 OD 450nm and 1.85 OD 450nm and 1.78 OD 450nm.
